Measurements published in IntAct's records for PubMed 12586840.

Target: ap2a_human TFAP2A (UniProt P05549)
Sequence (P05549 whole entry): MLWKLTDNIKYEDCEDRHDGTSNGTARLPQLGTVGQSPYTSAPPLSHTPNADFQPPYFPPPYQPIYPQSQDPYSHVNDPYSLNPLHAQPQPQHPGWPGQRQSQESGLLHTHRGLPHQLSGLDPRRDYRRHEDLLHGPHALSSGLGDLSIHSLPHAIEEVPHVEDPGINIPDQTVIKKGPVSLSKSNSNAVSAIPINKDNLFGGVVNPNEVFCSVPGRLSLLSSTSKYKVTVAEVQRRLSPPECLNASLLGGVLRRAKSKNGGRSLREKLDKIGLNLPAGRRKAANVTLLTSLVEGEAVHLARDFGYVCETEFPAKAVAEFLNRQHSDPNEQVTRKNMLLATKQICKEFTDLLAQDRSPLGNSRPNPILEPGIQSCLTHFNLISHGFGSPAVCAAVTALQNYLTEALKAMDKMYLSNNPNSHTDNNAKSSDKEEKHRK

effect of a mutation on the interaction: disrupting interaction
Substance: Histone acetyltransferase p300 (Homo sapiens), Q09472 D1399Y
